Data as given in publication PMC5426288, “Crystal structure of thermostable alkylsulfatase SdsAP from Pseudomonas sp. S9” (Bioscience Reports, 2017).

Tests used:
[1] = substrate: CCCCCCCCCCCCOS(=O)(=O)O; test: isothermal titration calorimetry, enzyme rate assay; assay type: biochemical, Pseudomonas sp.; conditions: 25 °C, 25 mM Tris/HCl pH 8.0, 200 mM NaCl, 25 nM enzyme
[2] = biological target: the molecule itself; test: crystal structure; SdsAP at 27.5 mg/ml, sitting drop vapor diffusion at 293 K, 0.1 M sodium acetate pH 4.5, 0.05 M magnesium acetate, 20% PEG 4000; two monomers in the asymmetric unit; 1.76 Å

B1: alkylsulfatase SdsAP from Pseudomonas sp. S9 (enzyme, UniProt F2WP51 42-674, looked up)
chain: AETAKPATDATKAANDALLKELPFDDKTSFDLAHKGFIAPLPAEPIKGEKGNMIWDPSKYGFIKEGEAAPDTTNPSLWRQSQLINISGLFEVTDGIYQVRNYDLSNMTIVEGKDGITIFDPLISQETAKAALDLYYKHRPKKPVVAVIYTHSHVDHYGGVRGVVDEADVKAGKVKIYAPLGFLEHAVAENVMAGTAMSRRASYMYGNLLPPDAKGQLGAGLGTTTSAGTVTLIPPTDIIKETGETHVIDGLTYEFMYAPGSEAPAEMLYYIKEKKALNAAEDSTHTLHNTYSLRGAKIRDPLAWSKYLNEALKLWGDDVQVMYAMHHWPVWGNKEVREQLSLQRDMYRYINDETLRLANKGYTMTEIAEQVKLPKKIATKFSNRGYYGSLNHNVKATYVLYLGWFIGNPATLWELPPADKAKRYVEMMGGADAVLKKAKEYYDKGDFRWVAEVVNHVVFAEPNNQAAKNMQADALEQLGYQAESGPWRNFYLTGAQELRNGVQQLPTPDTASPDTVKAMDLDLFFDFLAMRLKGPDVADKHITLNLDFTDLKQKYTLEMVNGVLNHTEGMQAKNADATVTLTRETLNNVMLKQTTLKDAESSGDIKIEGDKGKLEELMSYMDNFDFWFNIVTP
notes: SdsAP, type III alkylsulfatase of Pseudomonas sp; S9 (F2WP51); N-terminal signal peptide of 41 amino acids truncated; domains in the structure: 42-401 metallo-beta-lactamase like, 402-543 dimerization, 544-674 SCP-2-like; that this removes the His tag is inferred; source: E. coli BL21 (DE3), purified (IMAC, thrombin digestion, Mono Q, Superdex 200)
Km [1]: 74.2 ± 10 µM
kcat [1]: 4.88 ± 0.17 s⁻¹
stoichiometry N [2]: 2
